# Measurements reported in PMC11741385 (bioRxiv, 2025).
# B1: Candida albicans Pra1 (recombinant, full-length excluding the signal peptide) (natural protein, UniProt P87020 16-299, looked up)
# chain: APVTVTRFVDASPTGYDWRADWVKGFPIDSSCNATQYNQLSTGLQEAQLLAEHARDHTLRFGSKSPFFRKYFGNETASAEVVGHFDNVVGADKSSILFLCDDLDDKCKNDGWAGYWRGSNHSDQTIICDLSFVTRRYLTQLCSSGYTVSKSKTNIFWAGDLLHRFWHLKSIGQLVIEHYADTYEEVLELAQENSTYAVRNSNSLIYYALDVYAYDVTIPGEGCNGDGTSYKKSDFSSFEDSDSGSDSGASSTASSSHQHTDSNPSATTDANSHCHTHADGEVHC
# modifications: N-linked glycosylation at Asn48, Asn89, Asn135 and Asn208; three intramolecular disulphide bonds
# Biological target: the molecule itself
# Test: cryo-EM structure
protein,measurement,value
B1,stoichiometry N,6
